From the DeepSol protein solubility set

Assay: soluble on expression in E. coli; label from the status in PepcDB or PDB records

Sequence | soluble on expression in E. coli
MGSDKIHHHHHHMINQDIARIFTEIAYLLEAAGEQKSQFEANAYLKASRAISSMQEDLETIYEKGGKDALLSIPGIGKGIADKIVEYINSGSIQKYEDLKKKYPIDFISLMKIEGLGPKKLAVLYQALGITNVEELRNAILNHKVRGIPGFGEKSENQLLKNIEMAERVSERIPIWKAYPEALRIKNYLESTGYALIVEIAGSTRRMKETIGDIDILAASEYPNALMDKFVEMDGVSSIIAKGDKKSTVSLKIGTTCDLRIVSKESFGAAMQYFTGSKDHNIKLRRLAIGKGMKLNEYGLFSGDKNIVSGMPEEKVYETLDLAYIPPELREDRGEIEAAAQKRLPEIVQYGEVKGDMFSKMDVSNIKNITGISYVFVDSGDGPLTDLYMYTFDGGRAVKTGASIKALDCSKLNAVSELKSASGVIMLYNIDSLGLPESAAVQNLIEKLSKSGIIVLINSSDVRPTSDFLYSLRKYDFKVAIGSFSDEPSLEGSMRFGIGITRRAWIEKNRIINTLDANALMSYLKNSQ | not soluble
MSEAHPPELKKFMDKKLSLKLNGGRHVQGILRGFDPFMNLVVDDTIEMAPGGQMNTIGMVVIRGNSIIMLEALERV | soluble
MAISIKTPEDIEKMRVAGRLAAEVLEMIEPYVKPGVSTGELDRICNDYIVNEQHAVSACLGYHGYPKSVCISINEVVCHGIPDDAKLLKDGDIVNIDVTVIKDGFHGDTSKMFIVGKPTIMGERLCRITQESLYLALRMVKPGINLREIGAAIQKFVEAEGFSVVREYCGHGIGQGFHEEPQVLHYDSRETNVVLKPGMTFTIEPMVNAGKKEIRTMKDGWTVKTKDRSLSAQYEHTIVVTDNGCEILTLRKDDTIPAIISHDELVPRGSLEHHHHHH | soluble
MPKISSRDGGRPAQRTVNPIIVTRRGKIARLESGLTPQEAQIEDLVFLRKVLNRADIPYLLIRNHKNRPVLAINIELRAGLERALAAACATEPMYAKTIDEPGLSPVLVATDGLSQLVDPRVVRLYRRRIAPGGFRYGPAFGVELQFWVYEETVIRCPVENSLSRKVLPRNEITPTNVKLYGYKWPTLDGMFAPHASDVVFDIDMVFSWVDGSDPEFRARRMAQMSQYVVGEGDDAEARIRQIDELKYALRSVNMFAPWIRRIFIATDSTPPPWLAEHPKITIVRAEDHFSDRSALPTYNSHAVESQLHHIPGLSEHFLYSNDDMFFGRPLKASMFFSPGGVTRFIEAKTRIGLGANNPARSGFENAARVNRQLLFDRFGQVITRHLEHTAVPLRKSVLIEMEREFPEEFARTAASPFRSDTDISVTNSFYHYYALMTGRAVPQEKAKVLYVDTTSYAGLRLLPKLRKHRGYDFFCLNDGSFPEVPAAQRAERVVSFLERYFPIPAPWEKIAADVSRRDFAVPRTSAPSEGA | soluble
MGSDKIHHHHHHMLSNNCSILLIDDDADVLDAYTQLLEQAGYHVSACNNPFDAREQVPKDWPGIVLSDVCMPGCSGIDLMTLFHQDDDLLPILLITGHGDVPMAVEAVKKGAWDFLQKPIDPGKLLTLVDAALRQRQSVIARRQYCQQKLQVELIGRSQWTVRYRQRLQQLAETDIAVWLYGEPGTGRMTGARYLHQLGRHAEGPFIACELTPANAHTLNELIAQAQGGTLVLSHPEHLTHEQQHQLVQLQSHEKRPFRLIGIGSASLVELAASSQIVAELYYCFAMTQIGCQPLSKRPDDIEPLFHHYLQKTCQRLNHPVPEVDAGLLKGMMRRVWPNNVRELANAAELFAVGVLPLAETVNPLMHIGEPTPLDQRVEDVERQIITEALNIHQGRINEVAEYLLIPRKKLYLRMKKYGLNKEHYKGV | not soluble
MAHHHHHHMFTLCKGYSEDEDEEEVKDIIDNLKEQKKSFEEKINYYKLKGNIERSHITIYTNLGEFQVELYWYHSPKTCLNFYTLCTMGYYDNTIFHRVIPDYIIQGGDPTGTGKGGKSIYGEYFEDEINTELKHTGAGILSMSNNGPNTNGSQFFITLCPLPHLDGKHTIFARVSKNMTCIENIASVQTTATNKPIFDVKILRTSTAVNVD | soluble
MTEHTSSYYAASANKYAPFDTLNESITCDVCVVGGGYTGLSSALHLAEAGFDVVVLEASRIGFGASGRNGGQLVNSYSRDIDVIEKSYGMDTARMLGSMMFEGGEIIRERIKRYQIDCDYRPGGLFVAMNDKQLATLEEQKENWVRYGNKQLELLDVNAIRREVASDRYTGALLDHSGGHIHPLNLAIGEADAIRLNGGRVYELSAVTQIQHTTPAVVRTANGQVTAKYVIVAGNAYLGDKVEPELAKRSMPCGTQVITTERLSEDLARSLIPKNYCVEDCNYLLDYYRLTADNRLLYGGGVVYGARNPDDVERLVVPKLLKTFPQLKGVKIDYRWTGNFLLTLSHMPQFGRLDTNIYYMQGYSGHGVTCTHLAGRLIAELLRGDAERFDAFANLPHYPFPGGRTLRVPFTAMGAAYYSLRDRLGV | not soluble
MHHHHHHSSGRENLYFQGGSLLELQKKYHLKGAIGQGSYGVVRVAIENQTRAIRAIKIMNKNKIRQINPKDVERIKTEVRLMKKLHHPNIARLYEVYEDEQYICLVMELCHGGHLLDKLNVFIDDSTGKCAMDVVKTQICPCPECNEEAINGSIHGFRESLDFVQREKLISNIMRQIFSALHYLHNQGICHRDIKPENFLFSTNKSFEIKLVDFGLSKEFYKLNNGEYYGMTTKAGTPYFVAPEVLNTTNESYGPKCDAWSAGVLLHLLLMGAVPFPGVNDADTISQVLNKKLCFENPNYNVLSPLARDLLSNLLNRNVDERFDAMRALQHPWISQFSDKIYKMS | soluble
QILVVRNQVIFPYNGFELDVGRERSKKLIKALKNLKTKRLVLVTQKNSDQLNPEFDDIYHCGTLCDIDEIIEVPSEDGKTADYKIKGKGLQRVAITSFSDADLTKYDHHFLNSTLTENKALDKLLERIFPDKEDFAEILDSLNSFLELQELKKLSKVPKDIKRYDIITFKLASLIFKDITLQQAILEENDIEKRLQKIIGS | soluble
MAFALWYSLQERAPVVERSLKVPLQVVGLGEGRRALGLPREVLLRLRGPAPLLEGRALPVSAYLDLSGAEGEVVREVRVAAPQGVEVLEVVPARVGVVVEVEAQRQIPVEVLAQGAWVLTDPAFVEAVGPESQVEAAVSAVGLDLGDEVVLFPFGPEGPLEGVELRPNRVRVVERREALFLKEVPLSLKPPPGRRLLDYAPKTVRLVGPREALEGLAGVAATLQEALGPGEVEVAVAPDLPPGVQTLGPVRVRVALE | soluble
MGSDKIHHHHHHMDAAKDDLEHAKHDLEHGFYNWACFSSQQAAEKAVKAVFQRMGAQAWGYSVPDFLGELSSRFEIPEELMDHALELDKACIPTRYPDALPSGSPRNRYSRIEAERLVNYAEKIIRFCEDLLSRI | soluble
MDITNIKEMNYEEVFSITITVDKPILIGQDDIVGRRQLIPIISGKVSGNNFNGKVLPGGIDSQIVRPDGKCELSARYAIRLDDGAAIYIENNGIRTVPDEYIEAVKSGEFVDPNAYYFRTIPTFETYSPKYKWMMNHIFVCCASRLPENVLLKFYKIS | soluble
MSLTDLTKANEWLKDADAVIVTAGNGMAKEEGLDILSEENFDNQFGEIAEKYDVHTIGDALDKEFDSWEEKWTFWSKLINEYSLQYEKSENMKALEKLLEDKEYFIATSTFAHFFENAGFNENRIFDAFGDWTKMQCSSGINHGQKDNREVVKQFLQGKGELPKCEDCGSPMELHMPLNAHFFPDTDANTRFRWFLTGNEEKNVVVLELGVDATSPQLLDPMVNLVQQFSNWHYIAADLANDNLPDDLKKRAIGFGSDTHETLMNLTKEGHHHHHH | soluble
MAHHHHHHMCVPFKDQGQWIRQVALQVEEVAPSERGTDRPAAATPRHHMSVGVVDYYSKCGRICETVAVLCEEWMDSGYMDGFSSRLVKEANAGRSISDAPHRDAVFDSFCAPSPHCKKHAIFVRELDLALTTDTELRASIDADRPQEIETEEREMETMLHRLTREQGQSADVFSRDEIRRMKEAFVTGNKEDLQAVDPTAFDLTDDEFSTLKDYMHGEERKQQQQQRQRRPSAPSDADDL | not soluble
MGGGHHEPFKIPNYSIYSNFRDFPQLAQHEKRLAQIGLKDPWIRNYVYLYDRKYPHVVGQWAHFKKLILPGWKAGVAFTAALIFVEEAYQYKTHGTTSWDGHH | not soluble
MMPTEYPATAEESVDVITDALLTASRLLVAISAHSIAQVDENITIPQFRTLVILSNHGPINLATLATLLGVQPSATGRMVDRLVGAELIDRLPHPTSRRELLAALTKRGRDVVRQVTEHRRTEIARIVEQMAPAERHGLVRALTAFTEAGGEPDARYEIE | soluble
MGSDKIHHHHHHMRRSDGRLLKSLSPFVRIIPHIMTKRNDAQNFYKQVVAVDKIDQYIKEKKDQGIRLNYLHLFIAVYVRVLAQRPQLNRFIMNNKIYTRYDIRISMAIKRLLKDDGEETTVKFLFSGLESIEEIVKIVDQTIEEGCAAGAANEVDTIAQRIMALPNSQVKLLVGTLKWMDRHNLLPKKIIEASPFHTSLFFTYLKSINLDFIYHHLYDFGTTGIFVALGKSKKLPVVEEDQVVVKKCCEIGYVLDERICDGLYYSNSFKLVKKYLANPYLLDERLEKVEEDVN | not soluble
MGSDKIHHHHHHMIVKEINPHFEDYVFNWEQTYQFLVGGYGSSKSYHTALKIVLKLLKEKRTALVIREVFDTHRDSTFALFQEVIEELGLTKAVASLSSPLQLRFHNGSRIMFKGMDNPAKLKSVHNISLIWIEECSEVKYEGFKELIGRLRHPELKLHMICTTNPVGTSNWTYRHFFRDERKKRFVLDDSELYEKRTIVKGDTYYHHSTANDNLFLPESYVKQLDGLKEYDPDLYRIARKGRFGVNGIRVLPQFEVLPHDQVKKCIAAISKPIFRTGMDFGFEESYNAVVRLAVDPEKKYLYIYWEYYQNKMTDDRTAEELREFIETQELIKADSAEPKSIQYFRQQGFRMVGARKFPGSRLQYTKKVKRFKKIFCSDRCENVIYELETLTYAKDKNGALIEDEFTIDPHTLSAIWYALDDYEVADMKETAHKRMRPNRERRRS | not soluble
MGSDKIHHHHHHSKDKKSTDTKQTETKKTAKTDGTMTDGTYKLEEKNFDDKGWKGFMSIEVKDGKITKANYDYKNKDGKLKSEDADYEKAMKDKVGTGPQEYLKQLSDSLVKGQSASSVEVVSGATHSSDAFINYANQLIQAAQKADTTTISINNLAKMEDGTYKLEEQNYAHGYRVVFSMDVKDGKITKSDYNYVDKDGKLKSDDADYEKNMKAKSGTGPKEYIPALNKSLVEKQDVAAVDTVSGATNSSNQFKIYAAQLQNAAQNGNTDTIKVYNLVEAE | not soluble
MRLIVVSGQSGAGKSVALRVLEDLGYYCVDNLPVSLLTAFIQSVQGSQQNVAVSIDIRNLPKEPSLVQDVLDQLKQNNDVSMLFLDASKETLLKRYSETRRIHPLSLSQSKPSLAQAIELEKQLLGPLKEQADLLLDSSNQSLHELSETVRMRIEGRERKDLVMVFQSFGFKYGLPTDADYVFDVRFLPNPHWEPDLRPLTGLDAPIKSFLEGHSEVMELKQQIQKFFEYWLPMLEKNNRSYLTIAIGCTGGKHRSVYLTQQLGEYFAQLGHQVQLRHTSLEKQ | soluble
MQFNNKPLIGVVHLPPLPGSPGYKGELDEVIDRAISDAAKYQEAGFDAIILENYGDFPYSKTVGKETVSAFSVVANEVKREIALPLGINVLRNDCIAAYSIAYSIKADFIRVNVLTGVAFTDQGIVEGCARELAELRTRLPSRIDVLADVHVKHATHFSNFENALLDTIERGGADAVIVTGSRTGSEVDIQELITAKRISPVPVLVGSGVNPRNIKLFWRYSDGFIVGTWVKEGGRTINEVSIERATKLAKLVKSLREGLEHHHHHH | not soluble
